{"source": "paper PMC2185068", "binders": {"B1": {"name": "GST-l-afadin-PDZ (aa 1007–1125) (domain or fragment)", "chain": "PLRKEPEVITVTLKKQNGMGLSIVAAKGAGQDKLGIYVKSVVKGGAADVDGRLAAGDQLLSVDGRSLVGLSQERAAELMTRTSSVVTLEVAKQGAIYHGLATLLNQPSPMMQRISDRRG"}}, "biological_target": "Myc-nectin-1-CP (aa 379–518) (human)", "assay": "pull-down"}
{"binder": "B1", "values": [{"measurement": "stoichiometry N", "result": 1}]}
